Laboratory results from publication PMC3673099.

Columns and labels:
[1] = target: CyPet-(pre-SUMO2)-YPet (human) (UniProt P61956)
[2] = target: CyPet-(pre-SUMO3)-YPet (human) (UniProt P55854)
[3] = target: CyPet-(pre-SUMO1)-YPet (human) (UniProt P63165)
UniProt P63165, sequence (P63165 1-97): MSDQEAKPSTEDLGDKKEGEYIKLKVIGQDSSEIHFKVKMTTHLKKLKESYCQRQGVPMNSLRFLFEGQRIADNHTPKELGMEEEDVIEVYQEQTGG

UniProt P55854, sequence (P55854 1-92): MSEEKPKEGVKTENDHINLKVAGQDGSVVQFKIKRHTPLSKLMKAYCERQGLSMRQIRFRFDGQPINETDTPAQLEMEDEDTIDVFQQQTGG
UniProt P61956, sequence (P61956 whole entry): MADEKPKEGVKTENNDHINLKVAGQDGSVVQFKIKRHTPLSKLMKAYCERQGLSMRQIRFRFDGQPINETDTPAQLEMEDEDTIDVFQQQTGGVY

Km of the SENP1 catalytic domain for CyPet-(pre-SUMO2)-YPet, FRET-based protease assay, Michaelis-Menten fit, real-time detection (internal calibration) [1]: 0.17 µM
Km of the SENP1 catalytic domain for CyPet-(pre-SUMO2)-YPet, FRET-based protease assay, Michaelis-Menten fit, standard curve analysis [1]: 0.17 µM
Km of the SENP1 catalytic domain for CyPet-(pre-SUMO3)-YPet, FRET-based protease assay, Michaelis-Menten fit, real-time detection (internal calibration) [2]: 1.99 µM
Km of the SENP1 catalytic domain for CyPet-(pre-SUMO3)-YPet, FRET-based protease assay, Michaelis-Menten fit, standard curve analysis [2]: 3.75 µM
Km of the SENP1 catalytic domain for CyPet-(pre-SUMO1)-YPet, FRET-based protease assay, Michaelis-Menten fit, real-time detection (internal calibration) [3]: 0.14 µM
Km of the SENP1 catalytic domain for CyPet-(pre-SUMO1)-YPet, FRET-based protease assay, Michaelis-Menten fit, standard curve analysis [3]: 0.18 µM
Substance: catalytic domain of SENP1 (enzyme)
